These results are taken from paper PMC7949109, “Trans-2-enoyl-CoA reductase limits Ca^2+ accumulation in the endoplasmic reticulum by inhibiting the Ca^2+ pump SERCA2b” (The Journal of Biological Chemistry, 2021).

In this test the target is T1, PA-SERCA2b (recombinant SERCA2b with an N-terminal PA-tag) (human, UniProt P16615-1 1-1042).
T1 construct: human SERCA2b; cDNA in the pFastBac1 vector; source: Sf21 cells (baculovirus), solubilised with DDM, purified on anti-PA-tag NZ-1 Sepharose, eluted with PA-tag peptide; not shown: PA-tag, N-terminal, kept
The test can be described thus: pull-down; PA-SERCA2b (50 pmol) incubated with FLAG–TER (125 pmol) immobilised on anti-FLAG mAb resin, or resin alone, 4 °C 2 h; buffer H (50 mM Hepes–NaOH pH 7.0, 100 mM NaCl, 1 mM MgCl2, 5 mM EGTA, 1% DDM, 20% glycerol) with or without 100 nM free Ca2+; CBB staining; also 0.25 uM PA-SERCA2b pretreated with 2.5 uM thapsigargin (less pulled down). As to conditions: both partners purified.

T1 sequence (P16615 whole entry): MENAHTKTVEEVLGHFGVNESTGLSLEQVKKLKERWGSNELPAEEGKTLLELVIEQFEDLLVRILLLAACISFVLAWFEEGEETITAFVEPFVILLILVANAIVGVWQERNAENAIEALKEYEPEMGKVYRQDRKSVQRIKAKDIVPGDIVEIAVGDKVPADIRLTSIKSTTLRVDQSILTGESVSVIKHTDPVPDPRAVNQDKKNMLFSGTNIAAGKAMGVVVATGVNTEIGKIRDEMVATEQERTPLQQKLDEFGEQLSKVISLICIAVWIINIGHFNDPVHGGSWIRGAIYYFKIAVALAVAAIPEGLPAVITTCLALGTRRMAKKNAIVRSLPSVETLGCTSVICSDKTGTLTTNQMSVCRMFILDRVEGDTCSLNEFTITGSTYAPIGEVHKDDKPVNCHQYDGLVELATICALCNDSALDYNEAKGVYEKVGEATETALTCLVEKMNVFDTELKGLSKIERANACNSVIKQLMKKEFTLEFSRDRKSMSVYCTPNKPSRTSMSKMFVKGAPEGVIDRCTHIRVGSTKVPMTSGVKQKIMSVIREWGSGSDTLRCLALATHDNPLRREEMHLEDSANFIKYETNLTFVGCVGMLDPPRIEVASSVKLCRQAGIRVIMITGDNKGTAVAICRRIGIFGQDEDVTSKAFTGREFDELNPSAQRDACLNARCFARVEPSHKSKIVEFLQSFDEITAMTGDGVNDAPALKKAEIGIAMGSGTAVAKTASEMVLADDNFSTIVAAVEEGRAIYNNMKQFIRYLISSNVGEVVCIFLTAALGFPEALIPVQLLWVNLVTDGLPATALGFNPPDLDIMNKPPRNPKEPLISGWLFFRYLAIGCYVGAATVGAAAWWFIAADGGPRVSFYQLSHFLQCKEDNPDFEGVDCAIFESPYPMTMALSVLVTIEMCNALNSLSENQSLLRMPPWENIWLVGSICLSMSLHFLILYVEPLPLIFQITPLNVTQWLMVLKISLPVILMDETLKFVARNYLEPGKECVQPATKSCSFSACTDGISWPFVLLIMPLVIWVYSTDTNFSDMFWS

B1: FLAG–TER (recombinant TER with an N-terminal FLAG-tag), from insect cells (enzyme, human, UniProt Q9NZ01 1-308, looked up)
chain: MKHYEVEILDAKTREKLCFLDKVEPHATIAEIKNLFTKTHPQWYPARQSLRLDPKGKSLKDEDVLQKLPVGTTATLYFRDLGAQISWVTVFLTEYAGPLFIYLLFYFRVPFIYGHKYDFTSSRHTVVHLACICHSFHYIKRLLETLFVHRFSHGTMPLRNIFKNCTYYWGFAAWMAYYINHPLYTPPTYGAQQVKLALAIFVICQLGNFSIHMALRDLRPAGSKTRKIPYPTKNPFTWLFLLVSCPNYTYEVGSWIGFAIMTQCLPVALFSLVGFTQMTIWAKGKHRSYLKEFRDYPPLRMPIIPFLL
notes: human trans-2-enoyl-CoA reductase (TER); cDNA in the pFastBacFLAGa vector; not shown: FLAG, N-terminal, kept
Turning to B1, the binding result was “binds”.
